± gives the uncertainty stated by the source.
B1: Tripartite motif-containing protein 49C, residues 87 to 133; numbered along this chain, P0CI26 (parent)
chain: SSEEQMCGTHRETKKIFCEVDRSLLCLLCSSSQEHRYHRHRPIEWAA

Variants of: B1
Assay: abundance fitness (aPCA) (normalised: wild type 0, dead -1); higher = more abundant; growth selection in yeast, the domain comes from the species named
Settings: Homo sapiens

Abundance fitness: each site, then its substitutions
E19: Q -0.368 ± 0.15 | A -0.498 ± 0.11 | H -0.944 ± 0.22 | I -0.5 ± 0.21 | K -0.66 ± 0.18 | M -0.585 ± 0.16 | R -0.602 ± 0.1 | F -0.927 ± 0.26 | S -0.452 ± 0.12 | T -0.512 ± 0.16 | N -0.433 ± 0.2 | L -0.651 ± 0.12 | Y -0.737 ± 0.2 | C -0.255 ± 0.19 | D -0.297 ± 0.2 | V -0.586 ± 0.095 | W -0.647 ± 0.14 | G -0.619 ± 0.098 | P -0.026 ± 0.13
S23: H -0.277 ± 0.18 | P -0.686 ± 0.17 | C -0.055 ± 0.13 | M -0.062 ± 0.14 | N -0.835 ± 0.4 | R 0.058 ± 0.093 | K -0.035 ± 0.15 | F -0.944 ± 0.2 | G -0.31 ± 0.094 | T 0.409 ± 0.14 | I -0.007 ± 0.2 | Q -0.152 ± 0.15 | A -0.035 ± 0.087 | V -0.132 ± 0.096 | E 0.155 ± 0.11
K15: Q -0.264 ± 0.13 | S -0.147 ± 0.099 | D -0.571 ± 0.14 | V -0.408 ± 0.095 | T -0.119 ± 0.11 | M -0.578 ± 0.15 | P -0.79 ± 0.16 | L -0.3 ± 0.089 | F -0.32 ± 0.15 | R -0.415 ± 0.09 | I -0.327 ± 0.14 | E 0.037 ± 0.12 | A -0.337 ± 0.1 | N 0.201 ± 0.17 | C -0.382 ± 0.15 | G -0.265 ± 0.084 | W -0.668 ± 0.12
T13: D -0.364 ± 0.14 | C -0.22 ± 0.1 | I 0.046 ± 0.089 | N -0.431 ± 0.15 | G -0.196 ± 0.079 | L -0.21 ± 0.1 | S -0.081 ± 0.086 | Y -0.277 ± 0.17 | Q 0.148 ± 0.13 | H 0.006 ± 0.16 | W -0.436 ± 0.1 | M 0.242 ± 0.12 | P 0.313 ± 0.12 | R -0.128 ± 0.075 | K -0.224 ± 0.15 | V -0.033 ± 0.085 | A 0.168 ± 0.097 | F -0.232 ± 0.13 | E -0.028 ± 0.14
R22: W -0.504 ± 0.16 | M -0.251 ± 0.15 | V -0.575 ± 0.098 | F -0.772 ± 0.23 | T -0.764 ± 0.16 | D -0.101 ± 0.26 | I -0.588 ± 0.23 | A -0.267 ± 0.11 | N 0.019 ± 0.22 | G 0.174 ± 0.098 | Y -0.47 ± 0.29 | S -0.132 ± 0.11 | E 0.449 ± 0.16 | Q 0.117 ± 0.15 | L -0.327 ± 0.13 | K 0.22 ± 0.12
C18: F -0.802 ± 0.16 | A -0.907 ± 0.15 | Y -0.801 ± 0.18 | W -0.907 ± 0.13 | N -0.286 ± 0.18 | T -0.471 ± 0.11 | R -0.736 ± 0.094 | D -0.669 ± 0.21 | M -0.674 ± 0.17 | Q -0.731 ± 0.15 | E -0.333 ± 0.23 | G -0.821 ± 0.11 | L -1.09 ± 0.17 | I -0.783 ± 0.23 | H -0.768 ± 0.16 | K -0.381 ± 0.2 | S -0.327 ± 0.11
L28: M 0.024 ± 0.11 | E 0.189 ± 0.12 | P -0.095 ± 0.14 | T 0.204 ± 0.12 | R -0.068 ± 0.089 | D -0.17 ± 0.27 | W -0.368 ± 0.093 | N 0.075 ± 0.12 | S 0.12 ± 0.092 | C -0.389 ± 0.16 | Q 0.274 ± 0.13 | Y 0.056 ± 0.11 | F -0.422 ± 0.15 | K 0.003 ± 0.14 | V 0.186 ± 0.094 | H -0.246 ± 0.2
D21: E -0.142 ± 0.12 | H -0.267 ± 0.37 | F -0.562 ± 0.18 | K 0.022 ± 0.12 | T 0.061 ± 0.11 | R -0.152 ± 0.083 | P -1.02 ± 0.17 | N -0.01 ± 0.13 | W -0.198 ± 0.098 | M -0.604 ± 0.14 | I -0.789 ± 0.32 | L -0.573 ± 0.11 | Y -0.084 ± 0.19 | S -0.023 ± 0.094 | G -0.357 ± 0.081 | Q 0.104 ± 0.1 | C 0.149 ± 0.12
R11: W -0.36 ± 0.1 | Y -1.07 ± 0.36
V20: A 0.141 ± 0.11 | D 0.164 ± 0.1 | M -0.007 ± 0.1 | L -0.406 ± 0.076 | K 0.161 ± 0.17 | T -0.067 ± 0.08 | G -0.485 ± 0.11 | C -0.446 ± 0.093 | E 0.101 ± 0.18 | R -0.026 ± 0.078 | Y -0.036 ± 0.083 | S -0.07 ± 0.073 | I -0.144 ± 0.076 | Q 0.052 ± 0.11 | N -0.014 ± 0.082 | H -0.033 ± 0.08
L24: D -0.294 ± 0.14 | A -0.044 ± 0.09 | K -0.403 ± 0.14 | G -0.253 ± 0.083 | F -0.069 ± 0.19 | E -0.106 ± 0.12 | T -0.099 ± 0.15 | R -0.213 ± 0.098 | W -0.095 ± 0.13 | Y -0.085 ± 0.13 | P -0.217 ± 0.13 | V -0.139 ± 0.096 | Q -0.159 ± 0.11 | H -0.298 ± 0.22 | S -0.306 ± 0.12 | C -0.174 ± 0.12 | N -0.212 ± 0.17 | I -0.61 ± 0.2
E12: R 0.021 ± 0.079 | I -0.341 ± 0.17 | L 0 ± 0.082 | M -0.117 ± 0.12 | K 0.265 ± 0.12 | F -0.035 ± 0.12 | C -0.01 ± 0.15 | H -0.228 ± 0.24 | A 0.113 ± 0.09 | Q 0.066 ± 0.11 | V -0.072 ± 0.088 | D 0.077 ± 0.12 | N -0.797 ± 0.27 | W -0.439 ± 0.095 | P -0.671 ± 0.11 | Y -0.092 ± 0.13 | G -0.01 ± 0.076 | T 0.047 ± 0.097
C29: V -0.959 ± 0.12 | G -0.716 ± 0.082 | W -0.815 ± 0.17 | H -0.418 ± 0.15 | E -0.63 ± 0.12 | A -0.675 ± 0.092 | T -0.861 ± 0.17 | P -0.715 ± 0.19 | N -0.816 ± 0.16 | I -1.2 ± 0.36 | M -0.935 ± 0.18 | K -0.776 ± 0.18 | L -0.977 ± 0.17 | S -1.06 ± 0.14 | F -1.08 ± 0.2
L27: E 0.437 ± 0.08 | D 0.158 ± 0.084 | R 0.149 ± 0.07 | W -0.017 ± 0.077 | M 0.231 ± 0.08 | A 0.111 ± 0.074 | G 0.145 ± 0.068 | S 0.058 ± 0.072 | I -0.063 ± 0.096 | N 0.271 ± 0.09 | Y 0.059 ± 0.086 | P 0.132 ± 0.075 | T 0.106 ± 0.081 | Q 0.135 ± 0.081 | F -0.015 ± 0.083
C26: E -0.806 ± 0.19 | D -0.118 ± 0.29 | Y -1.15 ± 0.24 | W -1.09 ± 0.16 | V -1.1 ± 0.14 | L -0.787 ± 0.15 | M -1.08 ± 0.25 | S -0.777 ± 0.14 | A -0.891 ± 0.18 | H -0.962 ± 0.45 | Q -0.776 ± 0.36 | F -0.901 ± 0.26 | K -0.894 ± 0.23 | G -0.734 ± 0.09 | T -1.05 ± 0.38 | R -0.798 ± 0.12
L25: F -0.581 ± 0.16 | A -0.639 ± 0.12 | P -1.06 ± 0.27 | W -0.962 ± 0.15 | H -0.081 ± 0.22 | I -0.033 ± 0.4 | N -0.502 ± 0.41 | K -0.59 ± 0.21 | R -0.45 ± 0.11 | T -0.612 ± 0.16 | C -0.208 ± 0.17 | E -0.586 ± 0.18 | S -0.394 ± 0.1 | Q -0.388 ± 0.14 | Y -0.02 ± 0.15 | M -0.5 ± 0.2 | D -0.725 ± 0.23 | V 0.103 ± 0.088
K14: G -0.518 ± 0.085 | C -0.222 ± 0.15 | P -0.431 ± 0.16 | Q -0.328 ± 0.11 | S -0.708 ± 0.1 | M -0.199 ± 0.12 | D -0.303 ± 0.18 | L -0.247 ± 0.093 | V -0.33 ± 0.093 | N -0.419 ± 0.2 | E -0.173 ± 0.17 | W -0.431 ± 0.11 | F -0.811 ± 0.23 | H -0.738 ± 0.24 | T -0.644 ± 0.15 | R 0.02 ± 0.082 | A -0.029 ± 0.1
F17: Q -0.653 ± 0.27 | I -0.464 ± 0.15 | G -0.664 ± 0.095 | M -0.062 ± 0.11 | C -0.77 ± 0.2 | R -0.356 ± 0.093 | N -0.675 ± 0.18 | D -0.726 ± 0.14 | W 0.089 ± 0.12 | K -0.274 ± 0.13 | H -0.598 ± 0.18 | S -0.755 ± 0.11 | Y -0.205 ± 0.14 | L -0.081 ± 0.094 | V -0.328 ± 0.091 | T -0.443 ± 0.12
S31: D -0.251 ± 0.14 | I -0.065 ± 0.15 | E -0.123 ± 0.099 | P -0.544 ± 0.21 | A -0.048 ± 0.086 | L -0.493 ± 0.098 | M -0.408 ± 0.15 | K -0.286 ± 0.12 | F -0.313 ± 0.15 | Q -0.152 ± 0.15 | C -0.194 ± 0.16
S30: I -0.435 ± 0.21 | E -0.165 ± 0.12 | A 0.203 ± 0.1 | P -0.622 ± 0.12 | K -0.72 ± 0.19 | G -0.319 ± 0.097 | N -0.555 ± 0.31 | R -0.697 ± 0.1 | T -0.19 ± 0.12 | M -0.176 ± 0.18 | Y -0.407 ± 0.2 | F -0.776 ± 0.16 | D -0.288 ± 0.18 | Q -0.665 ± 0.14 | V -0.257 ± 0.093 | H -0.528 ± 0.25 | W -0.615 ± 0.18
I16: R -0.497 ± 0.084 | F -0.325 ± 0.19 | P -0.574 ± 0.13 | T -0.399 ± 0.13 | S -0.439 ± 0.094 | Y -0.077 ± 0.28 | K -0.197 ± 0.12 | A -0.703 ± 0.12 | W -0.28 ± 0.089 | D -0.392 ± 0.2 | Q -0.468 ± 0.14 | N -0.677 ± 0.19 | C -0.384 ± 0.12 | M -0.107 ± 0.1 | V -0.129 ± 0.093 | G -0.554 ± 0.1 | H -0.557 ± 0.3 | L -0.372 ± 0.091 | E -0.444 ± 0.13
